Measurements published in US20200299706A1 (COLD SPRING HARBOR LABORATORY, published 2020).

B1: J2 (Jointless-2, Solyc12g038510) SEP4-homolog MADS-box protein (other)
chain: MGRGRVELKRIENKINRQVTFAKRRNGLLKKAYELSILCDAEVALIIFSSRGKLYEFSSASSMMTTLEKYQQCSYASLDPMLPVSDTQMNYNEYVRLKARVELLQRSQRHILGEDLGTLNSKELEQLEHQLDASLKKVRSKKTQSMLDQLADLQEKEQMLEEANKQLKNKLEESAARIPLGLSWGNNGGQTMEYNRLPPQTTAQPFFQPLRLNSSSPQFGYNPNMGANDHEVNAATTAHNINGFIPGWML
B2: EJ2 (Enhancer-of-Jointless-2, Solyc03g114840) SEP4-homolog MADS-box protein (other)
chain: MGRGRVELKRIENKINRQVTFAKRRNGLLKKAYELSVLCDAEVALIIFSNRGKLYEFCSTSSMVKTIEKYQRCSYATLEANQSVTDTQNNYHEYLRLKARVELLQRSQRNFLGEDLGTLSSKDLEQLENQLESSLKQIRSRKTQFMLDQLADLQQKEQMLAESNRLLRRKLEESVAGFPLRLCWEDGGDHQLMHQQNRLPNTEGFFQPLGLHSSSPHFGYNPVNTDEVNAAATAHNMNGFIHGWML

Key:
[1] = target: the molecule itself; test: yeast two-hybrid, FIG. 5C
Protocol: (§1) Protein interaction assays in yeast were performed using the Matchmaker Gold Yeast Two-Hybrid System (Clontech) as described before (Park et al., 2014b). The coding sequences for bait proteins were cloned into the pGBKT7 vector, and the resulting vectors were transformed into the Y2HGold yeast strain. The coding sequences for prey proteins were cloned into the pGADT7 AD vector, and the resulting vectors were transformed into the Y187 yeast strain. After mating the two yeast strains expressing bait and prey proteins, diploid yeast cells were selected and grown on dropout medium without leucine and tryptophan. To assay protein-protein interactions, clones were grown on triple-dropout medium without leucine, tryptophan, and histidine for 3 d at 30° C. To block auto-activation, 3 mM 3-amino-1,2,4-triazole (3-AT) were added or adenine was removed from the triple-dropout medium. All primer sequences used for cloning can be found in Table 2.

[2] = target: the molecule itself; test: yeast two-hybrid (Matchmaker Gold; growth on -L-T-H medium)
Protocol: as §1

Protein	binding result [1]	binding result [2]
B1	binds	
B2		no binding
